Source: US20140220033A1, “Administration of an Anti-Activin-A Compound to a Subject” (Santa Maria Biotherapeutics, Inc., priority 2013, published 2014)

Columns and labels:
VEGF = VEGF immunostaining in gonadal tumor sections of inh-KO mice; format: in vivo, mouse; details: ovarian and testicular tumors of inh-KO mice; FIG. 8B
Protocol: (§1) 12-week-old female and 8-week-old male inh-KO mice with fully established ovarian or testicular tumors received a single injection of PBS or sActRIIB (30 mg/kg, SC). As a control, age-matched wild-type littermates received a single injection of PBS. Ovarian and testicular organ weights were determined by necropsy 14 days after the injection.
(§2) Zinc-formalin fixed paraffin tumor tissue sections of 4 μm in thickness were prepared. The sections were subjected to antigen retrieval by microwave 3 min in Unmask solution (Vector H-3300) followed by incubation in 10 μg/ml Proteinase-K for 20 min and in 1% H2O2 in dH2O for 10 min at room temperature. The sections were further incubated in 0.1% Tween-20 in PBS for 3 min to permeabilize the cell membrane and in goat serum for 30 min to block non-specific binding. The sections were then incubated at room temperature with specific primary antibody for 3 hours followed by incubation in biotinylated or fluorescently labeled secondary antibody. Substrate developed in Vector SG kit (SK-4700) or DAB and nuclear-counterstained in Vector Fast Red (H-3403) or in hematoxylin. The immunostained tissue sections were analyzed and photographed using a Nikon Eclipse 90i microscope equipped with DS-Ril camera. […]

[1] = tested on: TOV-21G ovarian cancer xenografts; assay: TOV-21G ovarian cancer xenograft growth in nude mice; format: in vivo, mouse
Protocol: (§3) 5×10^6 TOV-21G ovarian cancer cells were implanted subcutaneously into individual female athymic nu/nu mice (Harlan). Treatment was initiated at day 12 after tumor implantation, when the average tumor volume reached approximately 150 mm^3. The mice received PBS, sActRIIB (30 mg/kg, SC, 1×/week) or activin-A antibody (30 mg/kg, SC, 2×/week). In a separate chemotherapy combination experiment, the mice were treated with PBS, sActRIIB (10 mg/kg, SC, 1×/week), 5-FU (50 mg/kg, IP, 3 cycles, 4 daily injections per cycle) or sActRIIB and 5-FU combination at the same doses above.
For all xenograft experiments, the tumor sizes were measured longitudinally by using an electronic caliper Immediately prior to the 1st dose, the tumor-bearing mice were randomized to ensure even distribution in tumor sizes across different groups. Tumor volumes (mm^3) were calculated as tumor length (mm)×tumor width (mm)×tumor height (mm) Tumor weights were determined by necropsy.
In another experiment, athymic nude mice received TOV-21G xenografts in the abdominal flank. After 14 days, subcutaneous hu-sActRIIB-Fc was administered weekly alone or in combination with 5-FU.

[2] = tested on: DNA fragmentation (apoptosis) in TOV-21G tumors; assay: TUNEL assay in TOV-21G xenograft tumor sections; format: in vivo, mouse; details: FIG. 15C
Protocol: as §3
Cell apoptosis in TOV-21G tumors was analyzed by measuring the amounts of fragmented DNA in the tumor sections using the DeadEnd Fluorometric TUNEL System following the manufacturer's recommended protocols (Promega, G3250). The fluorescein-12-dUTP-labeled DNA was visualized by Nikon fluorescence microscopy.

TOV-21G cells = assay: In vitro proliferation assay of TOV-21G cells (IncuCyte); format: cell-based, human; details: increasing concentrations; FIG. 14
Protocol: In vitro growth rates of TOV-21G cancer cells were analyzed by using a real-time live cell imaging system (IncuCyte) following the manufacturer's recommended protocol.

CD31 = CD31 immunostaining in TOV-21G xenograft tumor sections; format: in vivo, mouse; details: FIG. 15B
Protocol: as §3
as §2, with “Substrate developed in Vector SG kit (SK-4700) or DAB and nuclear-counterstained in Vector Fast Red (H-3403) or in hematoxylin.” left out

VEGF transcripts = assay: VEGF mRNA in cell cultures (real-time RT-PCR); format: cell-based, human, bovine; details: TOV-21G, BAEC, MRC-5, CCD-Lu, U937 cultures treated with recombinant activin-A, without or with sActRIIB; FIG. 16A
Ang-2 mRNA = assay: Northern blot of Ang-2 mRNA in gonadal tumors of inh-KO mice; format: in vivo, mouse; details: ovarian and testicular tumors of inh-KO mice; FIG. 8C
Protocol: as §1
Total RNA was isolated from individual tissue samples after homogenization in Trizol (Invitrogen). A pool of 10 μg RNA for each group containing equal amounts of total RNA isolated from individual animals was subjected to Northern blot analysis. The northern probes used for βA and Ang-2 were generated by using RT-PCR (Phusion, Biolabs). βA primer set: 5′-CCCTTGCTTTGGCTGAGAGGA-3′ and 5′-TC ACA GGT CGT CGT AGG TCG-3′; Ang-2 primer set: 5′-TGT GCC GGG GAG AAG AG and 5′-TACAGTAGTGGGTTGAGGTTC-3′. To normalize the expression, northern blot membranes were re-probed with β-actin.

[3] = tested on: ovarian tumors in inh-KO mice; assay: Ovarian tumor mass in inh-KO mice (necropsy); format: in vivo, mouse; details: 12-week-old female inh-KO mice; single dose 30 mg/kg SC; necropsy 14 days after injection; FIG. 3A, 3B
Protocol: as §1

Ang-1 [4] = assay: Ang-1 immunostaining in TOV-21G xenograft tumor sections; format: in vivo, mouse; details: treated vs untreated sections (strong immunostaining); FIG. 15A
Protocol: as §3
as §2, with “Substrate developed in Vector SG kit (SK-4700) or DAB and nuclear-counterstained in Vector Fast Red (H-3403) or in hematoxylin.” left out

Ang-1 [5] = assay: Ang-1 immunostaining in gonadal tumor sections of inh-KO mice; format: in vivo, mouse; details: ovarian and testicular tumors of inh-KO mice; FIG. 8B
Protocol: as §1, §2

activin-A (βA) mRNA = assay: Endogenous activin-A (βA) mRNA in cell cultures (real-time RT-PCR); format: cell-based, human, bovine; details: TOV21G, BAEC, MRC-5, CCD-Lu, U937 and THP-1 cultures treated with recombinant activin-A, without or with sActRIIB; FIG. 18
caspase-3 = assay: Active caspase-3 immunostaining in gonadal tumor sections of inh-KO mice; format: in vivo, mouse; details: ovarian and testicular tissue sections of inh-KO mice, regions of residual tumor cells; FIG. 9
Protocol: as §1, §2

B1: sActRIIB: extracellular domain of human activin type-2B receptor fused to IgG2 Fc, expressed in CHO cells; sequence in the 26th table (protein)
chain: ETRWCIYYNANWELERTNQGLERCEGEQDKRLHCYASWRNSSGTIELVKKGCWLDDFNCYDRQECVATEENPQVYFCCCEGNFCNERFTHLPEAGGPEVTYEPPPTAPTGGGGSVECPPCPAPPVAGPSVFLFPPKPKDTLMISRTPEVTCVVVDVSHEDPEVQFNWYVDGVEVHNAKTKPREEQFNSTFRVVSVLTVVHQDWLNGKEYKCKVSNKGLPAPIEKTISKTKGQPREPQVYTLPPSREEMTKNQVSLTCLVKGFYPSDIAVEWESNGQPENNYKTTPPMLDSDGSFFLYSKLTVDKSRWQQGNVFSCSVMHEALHNHYTQKSLSLSPGK
modifications: left off: a dimerising Fc or GST
With B1 the “VEGF immunoreactivity in tumor sections” value (VEGF) was “completely abolished the VEGF and Ang-1 inductions”, the tumor growth reduction ([1]; 52 days after tumor cell injection, versus vehicle-treated tumor-bearing group, p<0.0001, weekly SC hu-sActRIIB-Fc from day 14, alone or with 5-FU) was 43% and the “rate of tumor growth of TOV-21G xenografts” value ([1]; chemotherapy combination experiment, sActRIIB 10 mg/kg SC 1x/week, 5-FU 50 mg/kg IP 3 cycles, alone or together, FIG. 13) was “decreased the rate of tumor growth significantly”. For the same molecule, the “growth of TOV-21G ovarian cancer xenografts” value ([1]; nude mice, sActRIIB 30 mg/kg SC 1x/week or activin-A antibody 30 mg/kg SC 2x/week from day 12, FIG. 10B) was “significantly inhibited the growth”, the “DNA fragmentation (TUNEL) in TOV-21G tumors” value [2] was “profound increases” and the “TOV-21G cell proliferation in vitro” value (TOV-21G cells) was “no direct effect”. The “CD31 immunostaining (newly formed microvessels) in TOV-21G tumor sections” value (CD31) was “lack of such new microvessels”, the “levels of VEGF transcripts” value (VEGF transcripts) was “prevented this induction” and the “Ang-2 mRNA expression (Northern blot)” value (Ang-2 mRNA) was “inhibited its overexpression”. For the same molecule, the ovarian tumor mass [3] was “regressed rapidly to the sizes seen in the WT control mice”, the “Ang-1 immunostaining in TOV-21G tumor sections” value (Ang-1 [4]) was “virtually none” and the “Ang-1 immunoreactivity in tumor sections” value (Ang-1 [5]) was “completely abolished the VEGF and Ang-1 inductions”. For the same molecule, the “endogenous βA mRNA expression” value (activin-A (βA) mRNA) was “blocked completely” and the “active caspase-3 immunostaining” value (caspase-3) was “strong immunostaining of active caspase-3”.
